# Reference: the nanobody polyreactivity screen of Harvey et al. (2022)
# Experiment: yeast display, Sf9 membrane polyspecificity reagent, FACS + sequencing; frameworks hold sequencing errors
# Summary of the method: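 Genes from sorted yeast were amplified by colony PCR, read by MiSeq 2 × 250 sequencing and filtered on CDR length. These cells carried a synthetic nanobody library in Saccharomyces cerevisiae BJ5465 and were sorted by FACS into low and high (top ~1%) gates on anti-HA and streptavidin fluorescence. Polyreactivity is labelled according to the gate of origin.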
row,Sequence,polyreactivity (PSR sort gate)
1,QVQLVESGGGLVQAGGSLRLSCAASGRIFFWYAMGWYRQAPGTERELVAGITSGGSTNYADSVKGRFTISRDNAKNTVYLQMNSLKPEDTAVYYCAKRSYRTHTYDYWGQGTQVTVSS,low polyreactivity
2,QVQLVETGGGLVQAGGSLRLSCAASGFTFRRYTMGWYRQAPGKERELVAAISGRGGRTYYADSVKGRFTISRDNAKNTVDLQMNSLKPEDTAVYYCAADTPYCQSSKYDYWGQGNQVTVSS,high polyreactivity
3,QVQLVESGGGLVQAGGSLRLSCAASGFIFSSYAMGWYRQAPGKERELVAAISRSGGRTYYADSVKGRFTISRDNAKNTVYLQMNSLKPEDTAVYYCAAKRWWQYYWGQGTQVTVSS,high polyreactivity
4,QVQLVESGGGLVQAGGTLRLSCAASGSIFGKNAMGWYRQARGKERELVAAITWSGGSTYYADSVKGRFTISRDNAKNTVSLQINSLKPEDTAVYYCNAVRVRVTSHRIRQLDYGYWGQGTQVTVSS,low polyreactivity
5,QVQLVESGGALVQAGGSLRLSCAASGRIFRAYAMGWYRQAPGKERELVAAISRSGGSTYYADSVKGRFTISRDNAKNTVYLQMNSLKPEDTAVYYCAAEYYFIDTGEYDYWGQGTQVSVSS,high polyreactivity
6,QVQLVESGGGLVQAGGSLRLSCAASGLTFDYYAMGWYRQAPGKERELVAAITRRGGGTYYADSVKGRFTISRDNAKNTVYLQMNSLTPEDTAVYYCNADRRSWSALHRYDYWGQGTQVTVSS,high polyreactivity
7,QVQLVESGGGLVQAGGSLRLSCAASGRIFRWYAMGWNRQAPGQERELVAAITRGDITNYADSVKGRFTISRDNAKNTVYLQMNSLKPEDTAVYYCNAQWYDIYDYWGQGSQVTVSS,high polyreactivity
8,QVQLVESGGGLVQAGGSLRLSSAASGIFWNYAMGWYRQAPGKERELVAAISGSGGSTYYADSVKGRFTISRDNAKNTVYLQINSLKPEDTAVYYCAAEPGNHIWIYDYWGQGTQVTVSS,low polyreactivity
9,QVQLVESGGGLVQAGGSLRLSCAASGSIFKFNTMGWYRQAPGKERELVASITRVGSTYYADSVKGRFTISRDNAKNTVYLQMNSLKPEDTAVYYCAARFLYYTYKTFRTYDYWGQGTQVSVSS,high polyreactivity
10,QVQLVESGGGLVQAGGSLRLSCAASGSILGTYAMGWYRQAPGKERELVARISRGGSTNYADSVKGRFTISRDNAKNTVYLQMNILKPEDTAVYYCAKRLYLPESWRYYYWGQGTQVTVSS,high polyreactivity
11,QVQLVESGGGLVQAGGSLRLSCAASGRIFGPYTMGWYRQAPGKERELVAAISWSGGSTYYADSVKGRFTISRDNAKNTVYLQMNSLKPEDTAVFYCNADHPFPQYEGGSWGQGTQVTVSS,low polyreactivity
12,QVQLVESGGGLVQAGGSLRLSCAASGRTFDIYAMGWYRQAPGKARELVAAISIAGSTNYADSVKGRFTISRDNAKNTVYLQMNSLKPEDTAVYYCAAAKPKKSRGSAYEYWGQGTLVTVSS,high polyreactivity
13,QVQLVESGGGLVHAGGSLRLSCAASGSTYRANSMGWYRQAPGKERELVAAITRRGGSTYYADSVKGRFTISRDNAKNTVYLQMNSLKPEDTAVYYCAAASRYGEGDYWGQGTQVTVSS,high polyreactivity
14,QVQLVESGGGLVQAGGSLRLSCAASGRIFWTYAMGWYRQAPGKERELVASITWSGGSTYYADSVKGRFTISRDNAKNTVYLQMNSLKPEDTAVYYCHTDVLAPYDSGYWGQGTQVTVSS,low polyreactivity
15,QVQLVESGGGLVQAGGSLRLSCAASGSIFVSYAMGWYRQAPGKERELVAAITRSGGSTYYADSVKGRFTISRDNAKNTVYLQMNSLKPEDTAVYYCAARSYLGAYRRYYWGQGTQVTVSS,high polyreactivity
16,QVQLVESGGGLVQAGGSLRLSCAASGSIFSYYAMGWNRQAHGKERELVASITRGGSTYYADSVKGRFTISRDNAKNTVYLQMNSLKPEDSAVYYCAAAARYYSRYDFPNNYWGQVTQVTVSS,low polyreactivity
17,QVQLVESGGGLVQEGGSLRLSCAASGRIFATYVMGWYRQAPGKERELVAAISRRGSSTYYADSVKGRFTISRDNAKNTVYLQMNSLKPEDTAVYYCAAVHKVGWSRHYDYWGLGTQVTVSS,high polyreactivity
18,QVQLVESGGGLVQAGGSLRLSCAASGSIFDYNAMGWYIQAPGKEREFVAAITYSGGSTYYADSVKGRFTISRDNAKYTVYLQMYSLKPEDSAVYYCGADYFQHVPKYGYCGQGTQVTVSS,low polyreactivity
19,QVQLVESGGGLVQAGGSLRLICAASGNIFGAYAMGWNIQAPGKERELVAVIRFDDGSTYYADSVKGRFTISRDNAKNTVYLQMNSLKPEDTAVDFCAVRLYLEMDYWGQGTQVTVSA,high polyreactivity
20,QVQLVESGGGLVQAGGSLRLSCAASGSTFVDYAMGWYRQAPGKERELVAAISSSGSTNYADSVKGRFTISRDNAKNTVYLQMNSLKPEDTAVYYCNADGNPDFYYSFYDEYDYWGQGTQVTVSS,low polyreactivity
21,QVQLVESGGGLVQAGGSLRLSCAASGSIFLPYAMVWSRQAPGTERELVAAITWGGDSTYADSVKGRFTISRDNAKNTVYLQMNSLKPEDTAVYYCAAGAGFESDYWGQGTQVTVSS,low polyreactivity
22,QVQLVESGGGLVQAGGSLRLSCAASGRIIFRNAMGWYRQAPGKERELVAAISTSGGSTYYADSVKGRFTISRDNAKNTVYLQMNSLKPEDTAVYYWSKQFNSSPRRYYWGQGTQVTVSS,high polyreactivity

row,Sequence,polyreactivity (PSR sort gate)
1,QVQLVESGGGLVQAGGSLRLSCAASGRIFDTYAMGWDRPAPRKERELVAAINSGGRTYYADSVKGRFTISRDNAKNTVYVQMNSLKPEDTAVYYCAAYITYSYGRYGSWGQGTQVTVSS,high polyreactivity
2,QVQLVESGGGLVQAGGSLRLSCAASGSIFTPYAMGWSRQAPGKERELVAVISWRVDSTYYADSVKGRFTISRDNAKNTVYLQMNSLKPEDTAVYYCAAKSYLLAPFGSGNRWSRYDYWGQGTQVTVSS,high polyreactivity
3,QVQLVESGGRLVQAGGSLRLSCAASGSTFGPYTMGWYRQAPGKERELVATISSGGSTYYADSVKGRFTISRDNAKNTVYLQMNSLKPEDTAVYYCAARYWSIYDYWGQGTQVTVSS,low polyreactivity
4,QVQLVESGGGLVQAGGSLRLSCAASGSTFRNNAMGWYRQAHGKERELVAAISRGGGSTYYADSVKGRFTISRDNAKNTVYLQMNSLKPEDTAVYYCARRPTGIYDYWGQGTQVTVSS,high polyreactivity
5,QFQLVESGGGLVQAGGSLRLSCAASGRIFFIYAMGWYRQAPGKERELVAGINRTGGSTNYADSVKGRFTISRDNAKNTVYLQMNSLKPEDTAVYYCAADIYDGGFDYWGQGTQVTVSS,low polyreactivity
6,QVQLVESGGGLVQAGGSLRLSCAASGSTFYNNAMGWYRQAPGKERELVAAISNVSTYYADSVKGRFTISRDNAKNTVYLQMNSLKPEDTAVYYCAARGLLWYYSWRYYYWGQGTQVTVSS,low polyreactivity
7,QVHLVESGGGLVQAGGSLRLSCAASGSTFGSNAMGWYRQAPGKERELVAAITNGGSTNYADSVKGRFTISRDNAKNTVYLQMNSLKPDDTAVYYCNGDPQQSKLWTYFFGFPGYYWGQGTQVTVSS,low polyreactivity
8,QVQLVESGGRLVQAGGSLRLSCAASGSTFGWYTMGWYRQAPGKERELVAAITSRGTRTSYADSVKARFTISRDNAKNTVYLQMNSLKPEDTAVYYCAARVFRGLGEYYWGQGTQVTVSS,high polyreactivity
9,QVQLVESGGGLVQAGGSLRLSCAPSGSTFIPNPMGWYRQAPGKERELVAAISRRGGSTNYADSVKGRFTISRDNAKNTVYLQMNSLKPEDTALYYCAAVSPRRYRYDYWGQGPQVTVSS,low polyreactivity
10,QVQLVESGGGLVQAGGSLRLSCDASARTFWRNAMGWYRQAPGKERELVAAISYSGGSTYYADSVKGRFTISRDYAKNTVYLQMNSLKPEDTAVYYCAVVYSTSSLYSGYYWGQGTQVTVSS,low polyreactivity
11,QVHHVESGGGLVQAGGTLRLSCSASGSTFWANAMGWYRQQPGKEWEFVARITYSCGSTYYADSVKGRFTISRDNAKNTVYLQMNSLIREDTAVYYCAAELPGKLVYWGQGSQVTVSS,low polyreactivity
12,QVQLVESGGGLVQAGGSLRLSCAASGGIFYGYAMGWYRQAPGKERELVAAISDSGGSTYYADSVKGRFTNSRDNAKYTGYVQMNSLKPEVTAVYYCATDAPVGGYVSEGDYWGQGTQVTVSS,low polyreactivity
13,QVQLVESGGGLVQAGGSLRLSCAASGRIFKSYAMGWYRQAPGKEMELVAAINWSGGSTYYADSVKGRFTISRDNAKNTVYLQMNSLKPEDTAVYYCNALYAVRSYDSWGQGTQVTVSS,high polyreactivity
14,QVQLVESGGGLVQAGGSLRLSCAASGSTFDQYAMGWYRQEPGKERELGAAISGSGGRTYYADSVKGRFTISRDNAKNTVYLQLNSLKPEDTAVYYCNTRAWRWGTDNSWGQGTQVTVSS,high polyreactivity
15,HVQLVESGGGLVQAGGSLRISCAASGITFYAYAMGWYRQAPGKERELVAAITRRGGSTRYADSVKGRFTITRDNAKNTVYLQMNSLKPEDTAVYYCNARSGRYFLGYGYWGQGTQVTVSS,high polyreactivity
16,QVQLVESGGGLVQAGGSLRLSCAASGRIFYLYAMGWYRQATGKERELVAAITWSGGSTTYADSVKGRFTISRDTAKNTVYLQMNSLNPEDTAVYYCNADGWIFPSFSPMDYWGQGTQVTVSS,low polyreactivity
17,QVQLVDSGGGLVQAGGSLRLSCAASGLIFSQYAMGWYRQAPGKEREFVARISSSGGSTYYADSVKGRFTISRDNAKNTVYLQMNSLKPEDTAVYYCAAVGGRNIRVWFRNKYDSWGQGTQVTVSS,low polyreactivity
18,QVQLVESGGGLVQAGGSLRLSSAASGFTFSHYAMGWYRQAPGKERELVAAITWSGGSTYYADSVKGRFTISRDNAKNTVYLQINSLKPEDTAVYYCAAESYLDGGEYWGQGTQVTVSS,high polyreactivity
19,QVQHVESGGGIVQAGGSLRLSCAASGSTFSGYAMGWYRQAPGKERELVASISSGGRTTYADSVKGRFTISRDNAKNTVYLQMNSLKPEDTAVSYCAKRIRPGYARLYSWGQGTQVTVSS,high polyreactivity
20,QVQLVESGGGLVQAGGSLRLSCAASGSNFSAYMGWYRQAPGKERELVADISSTGTTYYADSVKGRFTISRDNAKNTVYLQMNSLKPEDTAVYYCNADYFLQQEVTFDYWGQGSQVTVSS,high polyreactivity
21,QVQLVESGGGLVQAGGSLRLSCAASGFTFYYYAMGWYRQEPGKERELVAAISSRGGSTYYADSVKGRFTISRDNAKNTVYLQMNSLKREDTPVYYCAAVYKYGGATYRSTSYYYWGQGTQVTVSS,high polyreactivity
